In the DeepSol protein solubility set:

Test: soluble on expression in E. coli; label from the status in PepcDB or PDB records
With “GPGSMPSPLVLTRAAPARGLNVKMFDRKVKGLQRSFVSSPACDLHKLCAQQMLDRRTFVKRDTPVVLEVGAHTGWYLRHMIERKEFHGLKQYIQTDISEDRLNRNYEEIKNIIPPEVEFVQICCDEEQPSPFGIPDKSVDMVVSCLSMHWVNDLETSMVNVRKVLKRDGFFLNAMFGGNTLYELRGCFSMAQTETLGGVSPHVSPMIDGAGLSTLVLQAGFNIPTIDLDRHLLLYETPFHLMEHLAVMGESACHYMRQPMKRDVLLCACAIYDTMYKQNGLFPATFEVFHTIAWSPSPTQAKPLARGSGQIPLSSWNSKSRKQLQSVLDEYALNPNDEVLQNKAEDIFKKLREESAELMAKKGLDSRGFERDRDEEARRLDEKPVPPFQ” the “soluble on expression in E. coli” value was “not soluble”. In the case of “GPGSMQQSLIPGHNNNRHLTVEEIENNIGGLAITDNKLQELFDSLDVERTGYLPIGEVKKFYKGLEHYGLEPTDAEIESEMKKFAKSDENFMSYDEFCCLMLSFAQR”, the “soluble on expression in E. coli” value is reported as “not soluble”. With “GPGSMQRSTRIVMAPFKSVLRRHKHHPEGLPLYNDMSKQWLCREGERWWLLDARGEQLPRVAAVAAQYITGQHRPDFTPGMITGDHVVIVNIKDVVMVGDQWIRVPITWQTAYPGGKYRIRLTDMYERDPCMLMWWFLKDEVNRHFVRKLKTRIAPLEKAWLYEDSIHPHADKNPRPLCWTDPEVKGWKYRDPQFIRRWKPNEFMH” the “soluble on expression in E. coli” value was “not soluble”. For “GPGSMRGSDAMATHASRWRPPQNPAAVRKYSNETAAPQPPAKIIMEDHSLAEVFRRSAAFQRILAYVQGCSEAVESTPNHQRLSATVDDCDDTVRYLVTDYLPRLHDIVTAIPLEDMAQQRFGNRAKRVFHARLEETVVADMEKLVRTFPTSAGRSEEAITDMATEVAAYVMDSFGNATRLDYGSGHELHFFIVIMICLEEHGDGGGSLKDEPAVLVPLEVPPPPPVPPMERAEVRKRRQDYIFYIFHEYMRLVRRLQKRYSLEPAGSHGVWGLDDYHHIPYIFGGAQLINAEVQPVKPAAGQEAMLVLPKHICDRAKVEMLKDSYLYFSMIAWILENKTGPFHEHSNMLYNISGVEHWSKIYSGMVKMFAAEVLAKYNVSQHLLFGRHLPWNTKTM”, the “soluble on expression in E. coli” value was “soluble”. With “GPGSMRLALVGKRTHSLRDNGTPRMHAGDVFICISGSGCIGSIMCTYAQAKKASTGIVMIAGGVGDVPPKDSACATTTLLRSRDGLPWHLHGGGALGPVDGQPVRVRLVFAALFGRDALGGDAAGA” the “soluble on expression in E. coli” value was “soluble”. For “GPGSMRSTAPLFMAQGIWAGFRYYLGHFFYPNMYREYLSVQNAHKIERALRIQTAIKANRVDYRALLALPVTDHAHPYKMEYPWEKVINTDKSKLSGYGKWYASKIMCFYEGLQYHKYGCLQDDLINAHGWWNRAARTRAPQDKIVHGDRRVMRARVLRDKYIYEPKSRWVHPIDNVAYFGPYVMMVCDEWEEKWGFFAGQEVEY”, the “soluble on expression in E. coli” value was “not soluble”. With “GPGSMSAAACSWRHTEWTPYEVLNVPPSAPIGDIRAAFKCMALHTHPDKATVTTSARRASGSGATSCSEFPVSFHIVKEASEMLLDPYLRAAYDAARSQALTREVGAISDTYSLMDDFVRVRMDGDESDRQRVHVYQRECRCGGVYEVAVFPEAPAGSGEDEDVPLTYSARTLRCECDSCSLVVEVVA” the “soluble on expression in E. coli” value was “soluble”. For “GPGSMSAAGVTVRRAEREDTQRMYDLIMELAIYERAPECVVVSKAQMEEEGFGERPLWSAFVAELQETNDVKPRVIGMALYYYRYSTWRGRMLYLEDFIVTESHRGIGAGKMLFERVLQQAKEEGCHGMVWQALDWNAPAIEFYKKYDAEIDPGWVNCMLKF”, the “soluble on expression in E. coli” value was “soluble”. For “GPGSMSQQNAVEALLARLQMGDTIPAFQSMGVDRIVSLRKMSEEALSQAVPDPEQRQALMDAIESRGHLQSRRAGPPAGQPHPPRSADADFARGGNDEGRGGYAPRGDRGGRIARGGRGGGRGAGAPNGDDAARVCRHVFTPEGCKYGDKCRYSHDENDRRRAQEVPTGSGMAQRSLERPPPNFKFSIEVEIPTERIKYLLGSQGNNMKFINETCGTYNERFDHVDEKEETFTIRILGGSEEAINKAKEMLLLSAGVKREEEKKDRFQYAVNELDANTHAARLFAACNTKNKDTTRHLSDSIMRNIVSSFHFVRPQEVRHFYMYTSSSDKDKLEMVSKIVSQLKGVQAILFCDQKRVEEMCKGSQRIARHFNGVEPQFVYRQLSKEDRMMALERFKKGVENENGVRQRLLVTNEDYAKLARKTIIPYVNLVINFSVPRAEEYYVLQSQVAGRQGTIGASFLCVSNYEEALFRELEKNIQFERFEDEEHFRTTAVELSYDTTAQPLTPEDADPPADWREHLNDKKPRQNFGKRR”, the “soluble on expression in E. coli” value was “soluble”. With “GPGSMSTPNLDALLGVPLAAELVARAGGLLALCKLSDAALRMLGTEEFQSIASSSRARQLHAGLLLKAPLFTNAFGDEEEVDTTDRKAAQKGAAQLGRKCALVAKADLAGAFSDGSLGEAEKEKLNAAFTRLLAEGKVTAEDTQALAAPFVYVHGDAAKHRRGGVKERKKRESQQESISVVARATQRVRMGVSEEEQVQQLLQREDIRSEFAKERAQQLLKESRKRARESVHDEYDDLQNISL” the “soluble on expression in E. coli” value was “not soluble”. With “GPGSMTEHICASLVLTRGPEGLQRRLPVRLPLSGKPITIGRAIDNDVVLEMDLIFSSQWHCQMFAQKCEPETSERVEEREAASDPSRCEGRHVDCEGQTEIPVKEQYSLWLVDVGSSNGTFVNGIRVASSAPTPLHHGDVIVLGGMRDVEVGKSLPMEDLPLEIVTWRVAMEGKSEEGFGFVATPPVFLSMEFVISQARQRALGALQDSPDPKVSTTSPLKLPLKRMRHEQETGSNKLYDDGDVTPKRRIREVSYPSGEDRSGGELARRSGTVAAYLDPNEANAWEVTTNSSSDVASTTGLPCPSSKATASRGYCNSDALAEPTKEDARETRVAPAVARETVQ” the “soluble on expression in E. coli” value was “soluble”. For “GPGSMTRRNAMSDNTTSTSSVTPERYPFCIVWTDIPLVSWLFPFVGHVGICDSTGRIFDFEGSYCIGVDHMLFGNPVKYWDISAMYVPSSRFPPGGLLSGDVEERRRRETEEYDRALSGVTTRFRKTQTYNFFTNNCHSYVASVLEEMTNGPRRPWNMFWIAWGLAIHGRSLLKSPSSLPRYRRPLCDRRCTLGLTRSK”, the “soluble on expression in E. coli” value was “not soluble”. In the case of “GPGSMTTGQQQSIEGLRNELQQLEDSLMVREEALQRKRQQSERLNNELVDAYLSTTSQEESRASANEAYRTASRAKQVLENSETQSNESMWSNRDDYVSQLMAADEERKGVEADIGEVSSRIKELREDKVDAQKRLTVARLMSMLDDLQSLLKKKVYGPSGSEETRAQELLKTVQELSRERERTIHLLSKKEREMASLIDLKQRRIEELRKEFTRNVSMYADSNKRELLNVAQRIQGERHQLLEEMERLEEANRKITDVLMDTKYTTESAIKDRDTALSAVETMGVSTNPERECLQLRERIQKANAERRMYVLKMEEVQSSIDEDTVMYNTRMSKLRKEILFYQDETVRFEKENKDLKHLCDTLAGSLDGSH”, the “soluble on expression in E. coli” value is reported as “not soluble”. For “GPGSMTTQNGVNYSQREVVHRMPDWVANRRASVNRGHVAPPLTADGMNPRKASFSGSNGEKQGAVYNNYTERVSSRSGGDRIFSFDNRSTSRRESGTNVSVRSLQPVAGRTAVTHTIRFRGARWSQALSNMSVALERAIKEDVAACCGISSERIGQMKMKFTDRLVVTFVLDHSHDPSEESRFHNQLKVYNFWRTVALYPRK”, the “soluble on expression in E. coli” value was “soluble”. With “GPGSMVGPYNSKAGVVLVCDIFGLLPNSKRFADVLAEHGFLVAMPDFFGPLAWPESEWPADFQSMRWLQYVEKITQFDAFVPQMEAAIAVLRQMGCAKVGAIGMCWGAALPFMMAAQGKIDAAAAAHPSFFTADAVRAAKTPVLVLPSKDEPPMDDVEAAVNSHPMEPHVHKRFDALHHGFFGARYNPDAYTAEELKDVETARQLVLDFFKKSLH” the “soluble on expression in E. coli” value was “not soluble”. In the case of “GPGSMVVAVYPGTFDPLTRGHEDLVRRASSIFDTLVVGVADSRAKKPFFSLEERLKIANEVLGHYPNVKVMGFTGLLKDFVRANDARVIVRGLRAVSDFEYEFQMAGMNRYLLPDVETMFMTPSDQYQFISGTIVREIAQLGGDVSKFVFPSVEKWLTEKVAAMAQGPSA”, the “soluble on expression in E. coli” value is reported as “soluble”. With “GPLGSEQIGKLRSELEMVSGNVRVMSEMLTELVPTQAEPADLELLQELNRTCRAMQQRVLELIPQIANEQLTEELLIVNDNLNNVFLRHERFERFRTGQTTKA” the “soluble on expression in E. coli” value was “soluble”. For “GPLGSGGGTIAMLNEISSDTLEQLYSLAFNQYQSGKYEDAHKVFQALCVLDHYDSRFFLGLGACRQAMGQYDLAIHSYEEGAVMDIKEPRFPFHAAECLLQKGELAEAESGLFLAQELIANKPEFKELSTRVSSMLEAIKLKKEMKHE”, the “soluble on expression in E. coli” value was “soluble”. For “GPLGSMINAKTKVIGLIGHPVEHSFSPIMHNAAFKDKGLNYVYVAFDVLPENLKYVIDGAKALGIVGFNVTIPHKIEIMKYLDEIDKDAQLIGAVNTIKIEDGKAIGYNTDGIGARMALEEEIGRVKDKNIVIYGAGGAARAVAFELAKDNNIIIANRTVEKAEALAKEIAEKLNKKFGEEVKFSGLDVDLDGVDIIINATPIGMYPNIDVEPIVKAEKLREDMVVMDLIYNPLETVLLKEAKKVNAKTINGLGMLIYQGAVAFKIWTGVEPNIEVMKNAIIDKITK”, the “soluble on expression in E. coli” value was “soluble”. For “GPLGSMPGPAAGSRARVYAEVNSLRSREYWDYEAHVPSWGNQDDYQLVRKLGRGKYSEVFEAINITNNERVVVKILKPVKKKKIKREVKILENLRGGTNIIKLIDTVKDPVSKTPALVFEYINNTDFKQLYQILTDFDIRFYMYELLKALDYCHSKGIMHRDVKPHNVMIDHQQKKLRLIDWGLAEFYHPAQEYNVRVASRYFKGPELLVDYQMYDYSLDMWSLGCMLASMIFRREPFFHGQDNYDQLVRIAKVLGTEELYGYLKKYHIDLDPHFNDILGQHSRKRWENFIHSENRHLVSPEALDLLDKLLRYDHQQRLTAKEAMEHPYFYPVVKEQSQ”, the “soluble on expression in E. coli” value was “soluble”. For “GPLGSMSFTNATFSQVLDDLSARFILNLPAEEQSSVERLCFQIEQAHWFYEDFIRAQNDQLPSLGLRVFSAKLFAHCPLLWKWSKVHEEAFDDFLRYKTRIPVRGAIMLDMSMQQCVLVKGWKASSGWGFPKGKIDKDESDVDCAIREVYEETGFDCSSRINPNEFIDMTIRGQNVRLYIIPGISLDTRFESRTRKEISKIEWHNLMDLPTFKKNKPQTMKNKFYMVIPFLAPLKKWIKKRNIANNTTKEKNISVDVDADASSQLLSLLKS”, the “soluble on expression in E. coli” value was “soluble”. For “GPLGSPEFPHPLQDSWSYYLFQFRKALDWDECLEKVATFSTIEDFWSVLTHTVRPREITYGKDLYMFKSDIMPKWEDPKNENGGRWLINVTARQDVDFLWDELLMLLIGSDWDTDEEDRQICGAVFQPRSRGSKLSVWLTSDNEEETILSIGRRIKERLELEDTIYFQPVSDQRSQTRGSDICTGKYEI”, the “soluble on expression in E. coli” value was “soluble”. In the case of “GPLGSTRAKTQEEIKREEEQAIDEVLKIEFLELALGYQLISLADMKQGGDLLERIRGIRKKIASDYGFLMPQIRIRDNLQLPPTHYEIKLKGIVIGEGMVMPDKFLAMNTGFVNREIEGIPTKEPAFGMDALWIDAKNKEEAIIQGYTIIDPSTVIATHTSELVKKYAEDFITKDEVKSLLERLAKDYPTIVEESKKIPTGAIRSVLQALLHEKIPIKDMLTILETITDIAPLVQNDVNILTEQVRARLSRVITNAFKSEDGRLKFLTFSTDSEQFLLNKLRENGTSKSLLLNVGELQKLIEGVSEEAMKVLQKGIAPVILIVEPNLRKALSNQMEQARIDVVVLSHAELDPNSNFEALGTIHIN”, the “soluble on expression in E. coli” value is reported as “soluble”.
